Two proteins from article PMC4154877, “Mouse, but Not Human, ApoB-100 Lipoprotein Cholesterol Is a Potent Innate Inhibitor of Streptococcus pneumoniae Pneumolysin” (PLoS Pathogens, 2014) can be followed below.

Positions count from the first letter of the chain named. In names and notes the source's numbering stands.

Data set [1] deals with the molecule itself. Put plainly: FRET or BRET. In general terms: Bioluminescence resonance energy transfer reports proximity on the nanometre scale.
Data set [2] concerns the molecule itself. Description: SDS-agarose gel electrophoresis of SDS-resistant oligomer, immunoblot; PLY^PPL incubated with mouse or human serum diluted 1:2 to 1:40 in HEPES buffered saline, 37°C, 20 minutes; SDS-AGE (1.5%), blot probed with rabbit anti-PLY serum.

B1: pre-pore locked pneumolysin with Cys-117, labelled with Alexa Fluor 488 or 568 (PLY^PPL D117C) (natural protein, Streptococcus pneumoniae, UniProt P0C2J9 1-471, looked up)
chain: MANKAVNDFILAMNYDKKKLLTHQCESIENRFIKEGNQLPDEFVVIERKKRSLSTNTSDISVTATNDSRLYPGALLVVDETLLENNPTLLAVDRAPMTYSIDLPGLASSDSFLQVECPSNSSVRGAVNDLLAKWHQDYGQVNNVPARMQYEKITAHSMCQLKVKFGSDFEKTGNSLDIDFNSVHSGEKQIQIVNFKQIYYTVSVDAVKNPGDVFQDTVTVEDLKQRGISAERPLVYISSVAYGRQVYLKLETTSKSDEVEAAFEALIKGVKVAPQTEWKQILDNTEVKAVILGGDPSSGARVVTGKVDMVEDLIQEGSRFTADHPGLPISYTTSFLRDNVVATFQNSTDYVETKVTAYRNGDLLLDHSGAYVAQYYITWNELSYDHQGKEVLTPKAWDRNGQDLTAHFTTSIPLKGNVRNLSVKIREATGLAWEWWRTVYEKTDLPLVRKRTISIWGTTLYPQVEDKVEND
modifications: Alexa Fluor 488 (donor) or Alexa Fluor 568 (acceptor) on the sulfhydryl of Cys-117; disulfide between cysteine-substituted Gly-25 and Glu-159
notes: Donor-labelled protein was mixed with acceptor-labelled or unlabelled (U) protein in the FRET assay; also called D labeled PLY^PPL; A labeled PLY^PPL; source: E. coli Tuner cells, purified
As to B1, in data set [1], the binding result is on record as “binds”.

B2: pre-pore locked pneumolysin (PLY^PPL) (natural protein)
chain: B1 chain with C117D
modifications: disulfide between cysteine-substituted Gly-25 and Glu-159
notes: pneumolysin (PLY) of Streptococcus pneumoniae, codon-optimised gene in pET-15b (NdeI/BamHI); cysteine-less background (Cys-428 to Ala) with a disulfide between Cys-25 and Cys-159; also called prepore locked version of PLY; source: E. coli Tuner cells, purified
In the case of B2, the binding result in data set [2] was “binds”.
